The experiment has as its target FLAG-Synoviolin (UniProt Q86TM6 1-617, limits assumed). Put plainly: cell-based or functional assay.

FLAG-Synoviolin, sequence (Q86TM6 whole entry): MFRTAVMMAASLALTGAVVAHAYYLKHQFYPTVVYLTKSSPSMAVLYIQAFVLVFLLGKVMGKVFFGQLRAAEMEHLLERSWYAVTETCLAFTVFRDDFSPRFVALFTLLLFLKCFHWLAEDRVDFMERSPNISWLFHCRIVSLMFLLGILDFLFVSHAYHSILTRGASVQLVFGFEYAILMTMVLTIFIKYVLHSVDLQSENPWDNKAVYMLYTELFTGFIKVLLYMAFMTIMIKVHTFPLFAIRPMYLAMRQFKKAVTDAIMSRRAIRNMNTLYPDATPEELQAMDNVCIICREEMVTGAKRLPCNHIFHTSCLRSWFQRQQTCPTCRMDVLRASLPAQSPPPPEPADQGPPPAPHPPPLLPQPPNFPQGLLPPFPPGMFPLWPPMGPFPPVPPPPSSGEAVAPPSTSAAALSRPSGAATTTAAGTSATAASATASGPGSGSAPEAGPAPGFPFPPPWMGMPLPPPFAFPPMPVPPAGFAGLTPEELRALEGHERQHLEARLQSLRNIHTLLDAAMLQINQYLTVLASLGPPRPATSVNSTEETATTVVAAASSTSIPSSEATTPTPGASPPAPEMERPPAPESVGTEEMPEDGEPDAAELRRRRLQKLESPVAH

B1: SP-HA-hsHRD3B (SEL1L/hsHRD3 with an HA-tag inserted immediately after the signal peptide) (other, not shown: small tags and cut ends)
chain: GSQDESLDSKTTLTSDESVKDHTTAGRVVAGQIFLDSEESELESSIQEEEDSLKSQEGESVTEDISFLESPNPENKDYEEPKKVRKPALTAIEGTAHGEPCHFPFLFLDKEYDECTSDGREDGRLWCATTYDYKADEKWGFCETEEEAAKRRQMQEAEMMYQTGMKILNGSNKKSQKREAYRYLQKAASMNHTKALERVSYALLFGDYLPQNIQAAREMFEKLTEEGSPKGQTALGFLYASGLGVNSSQAKALVYYTFGALGGNLIAHMVLGYRYWAGIGVLQSCESALTHYRLVANHVASDISLTGGSVVQRIRLPDEVENPGMNSGMLEEDLIQYYQFLAEKGDVQAQVGLGQLHLHGGRGVEQNHQRAFDYFNLAANAGNSHAMAFLGKMYSEGSDIVPQSNETALHYFKKAADMGNPVGQSGLGMAYLYGRGVQVNYDLALKYFQKAAEQGWVDGQLQLGSMYYNGIGVKRDYKQALKYFNLASQGGHILAFYNLAQMHASGTGVMRSCHTAVELFKNVCERGRWSERLMTAYNSYKDGDYNAAVIQYLLLAEQGYEVAQSNAAFILDQREASIVGENETYPRALLHWNRAASQGYTVARIKLGDYHFYGFGTDVDYETAFIHYRLASEQQHSAQAMFNLGYMHEKGLGIKQDIHLAKRFYDMAAEASPDAQVPVFLALCKLGVVYFLQYIRETNIRDMFTQLDMDQLLGPEWDLYLMTIIALLLGTVIAYRQRQHQDMPAPRPPGPRPAPPQQEGPPEQQPPQ
As to B1, the “half-life of SEL1L/hsHRD3 (cycloheximide chase, Western blotting), in the absence of Synoviolin” value is 1.8 h and the “half-life of SEL1L/hsHRD3 (cycloheximide chase, Western blotting), with FLAG-Synoviolin co-expressed” value worked out at 4.3 h.

(Values after patent US20070238677A1 (LOCOMOGENE, published 2007).)
